Source: patent US20150344570A1 (published 2015)

B1: GpH7-A5/GpH7-B3 variant G237_05P/GpL16-k0 (antibody, human IgG1, kappa)
heavy 1: not shown
heavy 2: not shown
light: DIVMTQSPLSLPVTPGEPASISCQASESLVHSNRNTYLHWYLQKPGQSPQLLIYKVSNRFSGVPDRFSGSGSGTDFTLKISRVEAEDVGVYYCSQNTHVPPTFGQGTKVEIERTVAAPSVFIFPPSDEQLKSGTASVVCLLNNFYPREAKVQWKVDNALQSGNSQESVTEQDSKDSTYSLSSTLTLSKADYEKHKVYACEVTHQGLSSPVTKSFNRGEC
notes: Heterodimerized antibody, alteration in one H chain only; also called He Ab G237P
B2: GpH7-A5/GpH7-B3 variant S239_06M/GpL16-k0 (antibody, human IgG1, kappa)
heavy 1: not shown
heavy 2: not shown
light: B1 light
notes: Heterodimerized antibody, alteration in one H chain only; also called He Ab S239M
B3: GpH7-A5/GpH7-B3 variant P238_20W/GpL16-k0 (antibody, human IgG1, kappa)
heavy 1: not shown
heavy 2: not shown
light: B1 light
notes: Heterodimerized antibody, alteration in one H chain only; also called He Ab P238W
B4: GpH7-A5/GpH7-B3 variant S337_03V/GpL16-k0 (antibody, human IgG1, kappa)
heavy 1: not shown
heavy 2: not shown
light: B1 light
notes: heterodimerized IgG1, mutation in one H chain; also called He Ab
B5: GpH7-A5/GpH7-B3 variant P238_08L/GpL16-k0 (antibody, human IgG1, kappa)
heavy 1: not shown
heavy 2: not shown
light: B1 light
notes: Heterodimerized antibody, alteration in one H chain only; also called He Ab P238L
B6: GpH7-A5/GpH7-B3 variant P238_16H/GpL16-k0 (antibody, human IgG1, kappa)
heavy 1: not shown
heavy 2: not shown
light: B1 light
notes: Heterodimerized antibody, alteration in one H chain only; also called He Ab P238H
B7: GpH7-A5/GpH7-B3 variant S267_03V/GpL16-k0 (antibody, human IgG1, kappa)
heavy 1: not shown
heavy 2: not shown
light: B1 light
notes: Heterodimerized antibody, alteration in one H chain only; also called He Ab S267V
B8: GpH7-A5/GpH7-B3 variant V266_06M/GpL16-k0 (antibody, human IgG1, kappa)
heavy 1: not shown
heavy 2: not shown
light: B1 light
notes: Heterodimerized antibody, alteration in one H chain only; also called He Ab V266M
B9: GpH7-A5/GpH7-B3 variant S298_15Y/GpL16-k0 (antibody, human IgG1, kappa)
heavy 1: not shown
heavy 2: not shown
light: B1 light
notes: as for B4
B10: GpH7-A5/GpH7-B3 variant H268_01G/GpL16-k0 (antibody, human IgG1, kappa)
heavy 1: not shown
heavy 2: not shown
light: B1 light
notes: Heterodimerized antibody, alteration in one H chain only; also called He Ab H268G
B11: GpH7-A5/GpH7-B3 variant K326_04F/GpL16-k0 (antibody, human IgG1, kappa)
heavy 1: not shown
heavy 2: not shown
light: B1 light
notes: Heterodimerized antibody, alteration in one H chain only; also called He Ab K326F
B12: GpH7-A5/GpH7-B3 variant S324_19Q/GpL16-k0 (antibody, human IgG1, kappa)
heavy 1: not shown
heavy 2: not shown
light: B1 light
notes: as for B4
B13: GpH7-A5/GpH7-B3 variant K326_03V/GpL16-k0 (antibody, human IgG1, kappa)
heavy 1: not shown
heavy 2: not shown
light: B1 light
notes: Heterodimerized antibody, alteration in one H chain only; also called He Ab K326V
B14: GpH7-A5/GpH7-B3 variant S324_20W/GpL16-k0 (antibody, human IgG1, kappa)
heavy 1: not shown
heavy 2: not shown
light: B1 light
notes: as for B4
B15: GpH7-A5/GpH7-B3 variant P238_19Q/GpL16-k0 (antibody, human IgG1, kappa)
heavy 1: not shown
heavy 2: not shown
light: B1 light
notes: Heterodimerized antibody, alteration in one H chain only; also called He Ab P238Q
B16: GpH7-A5/GpH7-B3 variant P238_15Y/GpL16-k0 (antibody, human IgG1, kappa)
heavy 1: not shown
heavy 2: not shown
light: B1 light
notes: Heterodimerized antibody, alteration in one H chain only; also called He Ab P238Y
B17: GpH7-A5/GpH7-B3 variant S324_02A/GpL16-k0 (antibody, human IgG1, kappa)
heavy 1: not shown
heavy 2: not shown
light: B1 light
notes: as for B4
B18: GpH7-A5/GpH7-B3 variant S267_14T/GpL16-k0 (antibody, human IgG1, kappa)
heavy 1: not shown
heavy 2: not shown
light: B1 light
notes: Heterodimerized antibody, alteration in one H chain only; also called He Ab S267T
B19: GpH7-A5/GpH7-B3 variant S239_01G/GpL16-k0 (antibody, human IgG1, kappa)
heavy 1: not shown
heavy 2: not shown
light: B1 light
notes: Heterodimerized antibody, alteration in one H chain only; also called He Ab S239G
B20: GpH7-A5/GpH7-B3 variant S267_07I/GpL16-k0 (antibody, human IgG1, kappa)
heavy 1: not shown
heavy 2: not shown
light: B1 light
notes: Heterodimerized antibody, alteration in one H chain only; also called He Ab S267I
B21: GpH7-A5/GpH7-B3 variant S324_14T/GpL16-k0 (antibody, human IgG1, kappa)
heavy 1: not shown
heavy 2: not shown
light: B1 light
notes: as for B4
B22: GpH7-A5/GpH7-B3 variant P271_09D/GpL16-k0 (antibody, human IgG1, kappa)
heavy 1: not shown
heavy 2: not shown
light: B1 light
notes: Heterodimerized antibody, alteration in one H chain only; also called He Ab P271D
B23: GpH7-A5/GpH7-B3 variant S239_18N/GpL16-k0 (antibody, human IgG1, kappa)
heavy 1: not shown
heavy 2: not shown
light: B1 light
notes: Heterodimerized antibody, alteration in one H chain only; also called He Ab S239N
B24: GpH7-A5/GpH7-B3 variant S324_08L/GpL16-k0 (antibody, human IgG1, kappa)
heavy 1: not shown
heavy 2: not shown
light: B1 light
notes: as for B4

How the values were obtained:
FcγRIIb = target: T1, FcγRIIb (human, UniProt P31994 43-217); assay: SPR (Biacore), antibody captured, FcγR analyte; binding relative to GpH7-A5/GpH7-B3/GpL16-k0 = 100
T1 construct: extracellular domain; also called FcgRIIb; 2b
T1 sequence (looked up): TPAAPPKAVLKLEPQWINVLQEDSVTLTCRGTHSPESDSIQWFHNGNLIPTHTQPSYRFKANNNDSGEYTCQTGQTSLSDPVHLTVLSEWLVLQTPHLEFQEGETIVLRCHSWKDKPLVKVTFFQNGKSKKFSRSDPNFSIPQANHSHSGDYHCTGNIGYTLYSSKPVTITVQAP

FcγRIIa H = target: T2, FcγRIIa H (human, UniProt P12318 34-217); assay: as above
T2 construct: extracellular domain; also called FcgRIIa H; FcγRIIa type H
T2 sequence (looked up): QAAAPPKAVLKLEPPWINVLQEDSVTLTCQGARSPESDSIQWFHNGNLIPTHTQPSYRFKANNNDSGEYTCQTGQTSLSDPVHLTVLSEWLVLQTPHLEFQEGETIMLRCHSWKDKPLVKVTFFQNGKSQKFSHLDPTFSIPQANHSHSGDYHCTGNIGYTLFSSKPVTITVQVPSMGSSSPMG

FcγRIa = target: T3, FcγRIa (human, UniProt P12314 16-292); assay: SPR (Biacore), captured antibody, FcγRIa analyte; relative to HeCon Ab GpH7-A5/GpH7-B3/GpL16-k0 = 100
T3 construct: extracellular domain; soluble extracellular domain with C-terminal His tag, expressed in FreeStyle293 cells; also called FcgRI; FcgRIa
T3 sequence (P12314 16-292): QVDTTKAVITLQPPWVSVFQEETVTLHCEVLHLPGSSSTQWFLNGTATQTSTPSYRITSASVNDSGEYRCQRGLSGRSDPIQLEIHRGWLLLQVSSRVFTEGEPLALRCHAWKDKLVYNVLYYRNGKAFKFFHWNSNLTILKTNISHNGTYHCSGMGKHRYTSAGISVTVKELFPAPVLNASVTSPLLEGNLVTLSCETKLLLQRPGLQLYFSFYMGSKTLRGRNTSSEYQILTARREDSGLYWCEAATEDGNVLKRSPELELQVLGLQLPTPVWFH

Binder	He/Con_2b (FcγRIIb)	He/Con_2aH (FcγRIIa H)	He/Con_1a (FcγRIa)
B1	24.6 % of control	–	–
B2	101 % of control	98.6 % of control	–
B3	123 % of control	59.5 % of control	–
B4	–	–	107 % of control
B5	204 % of control	84.6 % of control	–
B6	115 % of control	45.9 % of control	–
B7	192 % of control	50.8 % of control	–
B8	251 % of control	83.9 % of control	–
B9	–	–	107 % of control
B10	144 % of control	99.2 % of control	–
B11	155 % of control	97 % of control	–
B12	–	–	112 % of control
B13	175 % of control	97 % of control	–
B14	–	–	114 % of control
B15	110 % of control	56.4 % of control	–
B16	218 % of control	59.8 % of control	–
B17	–	–	103 % of control
B18	104 % of control	63.3 % of control	–
B19	144 % of control	97 % of control	–
B20	192 % of control	34.7 % of control	–
B21	–	–	121 % of control
B22	120 % of control	70.1 % of control	–
B23	119 % of control	94.2 % of control	–
B24	–	–	103 % of control
